Test results from paper PMC9162458, “Divergent binding mode for a protozoan BRC repeat to RAD51” (Biochemical Journal, 2022).
Ends that are not written are not given here.

Target: T1, LiRAD51^ATPase (Leishmania infantum RAD51 ATPase domain, residues 134–386) (Leishmania infantum)
T1 construct: RAD51 of Leishmania infantum, ATPase domain, residues 134-386; Vector pHAT2 (Addgene #112583); No removal of the His-tag is described; also called monomeric LiRAD51^ATPase; LiRAD51 ATPase domain; source: E. coli (T7Express or BL21(DE3)); purified (Ni-NTA, Superdex 75 SEC) for FP and ITC; in lysate for the pull-down
Test: fluorescence polarisation; competition: 5 nM Fluor-NCys-LiBRC1 probe with 500 nM LiRAD51^ATPase, GB1-LiBRC repeats in serial dilutions; KD estimated from the fitted IC50; 50 mM Tris pH 8.0, 150 mM NaCl, 100 mM Li2SO4, 1% BSA, 0.1% Tween-20
Details: both partners purified

Binder	Kd [nM]
AAAPPLVPTLFSTASGKPVTVRRESLQKVAERLGDLAA (domain or fragment, not fully specified (N-terminus); also: GB1 fusion) [LiBRC1.3 (LiBRC1 with extended termini, GB1 fusion)]	310
GB1-RVPTLFETGRGKAVTVQKRSLDKAEASMDSLEA-His8 (domain or fragment) [GB1-LiBRC2-His8 (BRC repeat 2 of Leishmania infantum BRCA2 fused to GB1)]	13600
LVPTLFSTASGKPVTVRRESLQKVAERLGDLAAPDME (domain or fragment, not fully specified (N-terminus); also: GB1 fusion) [LiBRC1.2 (LiBRC1 with extended termini, GB1 fusion)]	190
